{"source": "paper PMC4788496", "about": "(Chemistry & biology, 2015)", "proteins": {"B1": {"name": "apoNC1 (heme-free DGCR8 construct NC1, a.a. 276-751) (domain or fragment, human, UniProt Q8WYQ5 276-751, looked up)", "chain": "DGETSVQPMMTKIKTVLKSRGRPPTEPLPDGWIMTFHNSGVPVYLHRESRVVTWSRPYFLGTGSIRKHDPPLSSIPCLHYKKMKDNEEREQSSDLTPSGDVSPVKPLSRSAELEFPLDEPDSMGADPGPPDEKDPLGAEAAPGALGQVKAKVEVCKDESVDLEEFRSYLEKRFDFEQVTVKKFRTWAERRQFNREMKRKQAESERPILPANQKLITLSVQDAPTKKEFVINPNGKSEVCILHEYMQRVLKVRPVYNFFECENPSEPFGASVTIDGVTYGSGTASSKKLAKNKAARATLEILIPDFVKQTSEEKPKDSEELEYFNHISIEDSRVYELTSKAGLLSPYQILHECLKRNHGMGDTSIKFEVVPGKNQKSEYVMACGKHTVRGWCKNKRVGKQLASQKILQLLHPHVKNWGSLLRMYGRESSKMVKQETSDKSVIELQQYAKKNKPNLHILSKLQEEMKRLAEEREETRK"}}, "target": "the molecule itself", "experiment": "SEC"}
{"protein": "B1", "values": [{"measurement": "binding result", "value": "binds"}]}
